Biological target: pICln (UniProt P54105 1-237)
Assay: pull-down

binding result: binds
B1: GST-PRMT5reg (domain or fragment)
chain: MAAMAVGGAGGSRVSSGRDLNCVPEIADTLGAVAKQGFDFLCMPVFHPRFKREFIQEPAKNRPGPQTRSDLLLSGRDWNTLIVGKLSPWIRPDSKVEKIRRNSEAAMLQELNFGAYLGLPAFLLPLNQEDNTNLARVLTNHIHTGHHSSMFWMRVPLVAPEDLRDDIIENAPTTHTEEYSGEEKTWMWWHNFRTLCDYSKRIAVALEIGADLPSNHVIDRWLGEPIKAAILPTSIFLTNKKGFPVLSKMHQRLIFRLLKLEVQFIITGTNHHSEKEFCSYLQYLEYLSQN

Source: article PMC2755859 (The Journal of Biological Chemistry, 2009)
